Data reported in paper PMC5699643 (Nature microbiology, 2017).

B1: RsaA(249-1026), the N-terminally cleaved RsaA in the crystals (domain or fragment)
chain: GSTLSLTTGTDTLTGTANNDTFVAGEVAGAATLTVGDTLSGGAGTDVLNWVQAAAVTALPTGVTISGIETMNVTSGAAITLNTSSGVTGLTALNTNTSGAAQTVTAGAGQNLTATTAAQAANNVAVDGGANVTVASTGVTSGTTTVGANSAASGTVSVSVANSSTTTTGAIAVTGGTAVTVAQTAGNAVNTTLTQADVTVTGNSSTTAVTVTQTAAATAGATVAGRVNGAVTITDSAAASATTAGKIATVTLGSFGAATIDSSALTTVNLSGTGTSLGIGRGALTATPTANTLTLNVNGLTTTGAITDSEAAADDGFTTINIAGSTASSTIASLVAADATTLNISGDARVTITSHTAAALTGITVTNSVGATLGAELATGLVFTGGAGADSILLGATTKAIVMGAGDDTVTVSSATLGAGGSVNGGDGTDVLVANVNGSSFSADPAFGGFETLRVAGAAAQGSHNANGFTALQLGATAGATTFTNVAVNVGLTVLAAPTGTTTVTLANATGTSDVFNLTLSSSAALAAGTVALAGVETVNIAATDTNTTAHVDTLTLQATSAKSIVVTGNAGLNLTNTGNTAVTSFDASAVTGTGSAVTFVSANTTVGEVVTIRGGAGADSLTGSATANDTIIGGAGADTLVYTGGTDTFTGGTGADIFDINAIGTSTAFVTITDAAVGDKLDLVGISTNGAIADGAFGAAVTLGAAATLAQYLDAAAAGDGSGTSVAKWFQFGGDTYVVVDSSAGATFVSGADAVIKLTGLVTLTTSAFATEVLTLA
B2: RsaA, S-layer protein of Caulobacter crescentus CB15N (NA1000), full length, purified (natural protein)
chain: MAYTTAQLVTAYTNANLGKAPDAATTLTLDAYATQTQTGGLSDAAALTNTLKLVNSTTAVAIQTYQFFTGVAPSAAGLDFLVDSTTNTNDLNDAYYSKFAQENRFINFSINLATGAGAGATAFAAAYTGVSYAQTVATAYDKIIGNAVATAAGVDVAAAVAFLSRQANIDYLTAFVRANTPFTAAADIDLAVKAALIGTILNAATVSGIGGYATATAAMINDLSDGALSTDNAAGVNLFTAYPSSGVSGSTLSLTTGTDTLTGTANNDTFVAGEVAGAATLTVGDTLSGGAGTDVLNWVQAAAVTALPTGVTISGIETMNVTSGAAITLNTSSGVTGLTALNTNTSGAAQTVTAGAGQNLTATTAAQAANNVAVDGGANVTVASTGVTSGTTTVGANSAASGTVSVSVANSSTTTTGAIAVTGGTAVTVAQTAGNAVNTTLTQADVTVTGNSSTTAVTVTQTAAATAGATVAGRVNGAVTITDSAAASATTAGKIATVTLGSFGAATIDSSALTTVNLSGTGTSLGIGRGALTATPTANTLTLNVNGLTTTGAITDSEAAADDGFTTINIAGSTASSTIASLVAADATTLNISGDARVTITSHTAAALTGITVTNSVGATLGAELATGLVFTGGAGADSILLGATTKAIVMGAGDDTVTVSSATLGAGGSVNGGDGTDVLVANVNGSSFSADPAFGGFETLRVAGAAAQGSHNANGFTALQLGATAGATTFTNVAVNVGLTVLAAPTGTTTVTLANATGTSDVFNLTLSSSAALAAGTVALAGVETVNIAATDTNTTAHVDTLTLQATSAKSIVVTGNAGLNLTNTGNTAVTSFDASAVTGTGSAVTFVSANTTVGEVVTIRGGAGADSLTGSATANDTIIGGAGADTLVYTGGTDTFTGGTGADIFDINAIGTSTAFVTITDAAVGDKLDLVGISTNGAIADGAFGAAVTLGAAATLAQYLDAAAAGDGSGTSVAKWFQFGGDTYVVVDSSAGATFVSGADAVIKLTGLVTLTTSAFATEVLTLA

Legend:
crystal structure = molecular target: the molecule itself; assay: crystal structure
[1] = molecular target: the molecule itself; assay: in vitro reconstitution of S-layer sheets, seen by cryo-EM and cryo-ET

Protein | stoichiometry N (crystal structure) | binding result [1]
B1 | 6 | 
B2 |  | binds
